# B1: Caspase-1 (Homo sapiens), P29466 (protein)
# chain: MADKVLKEKRKLFIRSMGEGTINGLLDELLQTRVLNKEEMEKVKRENATVMDKTRALIDSVIPKGAQACQICITYICEEDSYLAGTLGLSADQTSGNYLNMQDSQGVLSSFPAPQAVQDNPAMPTSSGSEGNVKLCSLEEAQRIWKQKSAEIYPIMDKSSRTRLALIICNEEFDSIPRRTGAEVDITGMTMLLQNLGYSVDVKKNLTASDMTTELEAFAHRPEHKTSDSTFLVFMSHGIREGICGKKHSEQVPDILQLNAIFNMLNTKNCPSLKDKPKVIIIQACRGDSPGVVWFKDSVGVSGNLSLPTTEEFEDDAIKKAHIEKDFIAFCSSTPDNVSWRHPTMGSVFIGRLIEHMQEYACSCDVEEIFRKVRFSFEQPDGRAQMPTTERVTLTRCFYLFPGH
# Substrate: CC(C)[C@H](NC(=O)c1ccc2ccccc2c1)C(=O)N[C@@H](C)C(=O)N[C@H](CNCc1ccccc1O)CC(=O)O
# Settings: Homo sapiens
# Description: Activity of human recombinant caspase 1
protein,measurement,value
B1,Km,5.8 µM
